From the domain aggregation screens of Martell et al. (2025) come the findings set out here.
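Further: 20 min heating vs room temperature control held 20 min.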

This series in a line: soluble fraction after stress (log2 fold change); higher = more stays soluble; pooled small domains, quantitative proteomics. Conditions: stress: 75 degC.
For “HMAGSGDLNAKYLASIPAPMKAKILKAVANHYGVSISEFEEEVTDKDAEALYEYIPTRSMAVQVLRDMKG”, the “soluble fraction (log2)” value is -0.829. “HMAGSGLPVPRFVSLADDRVNARAGPGFRFPINWVYLRKGFPVEVVDEFGPWRRIRDIDGVAAWIHLSMLS”: the “soluble fraction (log2)” value was -0.654.

As for “HMAGTAFPVRIMLKGIDRIGLLNEITGYISVAMGVNMRKLNLSTEDGIFEGYIDMLVHDRTVLESMIDNL”, the “soluble fraction (log2)” value was -0.381. As for “HMAGTELASIKEIQSLVDRSEEALSARNFFWPKDKSESMLLSFRNMFSRLKLTKMDVQIFHGIFKVMEKS”, the “soluble fraction (log2)” value was 0.24. The value for “HMAGVSVTSLTTFWRLAADTPDTPSGADDPSGWSRTEPSIPDGYEGKLYRTIRTIMSDGTATWTSPD” was -0.728; that for “HMAGYDTYMVDRDAELLPWLLETLQRESRSKVKATLQGNGIKVNGKRVTQFNYPLKAGMKVSVSKSK” was 0.0362; that for “HMAHILDLMELKQILRLHMDGLSNRRISDTLGIHRNTINSYVSQFKASKHGIEELLKLSDYELAQLFP” was -2.49. As for “HMAHRYQQIADDLGRRVEAGEFAAGRLLPSEATLSGQYKASRVTVRKALEALRTDGLVESRQGFGWFVAAD”, the “soluble fraction (log2)” value is -0.405. The value for “HMAIADQPISAEHFDKLRQVLNSNTQETIASAKQHWASISNNAEFTNENVTRTLLEEMLAFIKSAS” was 0.415; that for “HMAIDVQELARTRLRSLRTTLGYSLDELAARTHLSPSTISRLETGKRSLSLDVVVPLAQALHVSLDVLFEA” was -2.67; that for “HMAIEGIFEKYQRRSDQLIPILQDVQKEFGYIAPESVRHISRYLRISENQIFGVSSFYAQFRFT” was -0.228. In the case of “HMAIGTDPETGISVVADGTDFIWTRSGATSTIFLRLDSENSYILNVKQGDFEVIDYELGEGQENAINIDQS”, the “soluble fraction (log2)” value came to 0.0422. The value for “HMAIPEVDPAKQGVSATQLAALDALAHRNAGEGRVAGMVNVVIRNGEIVYYKATGPRHIDGGAPLKSTDLF” was -0.148; that for “HMAIQGVRLYERTLETGDPWLDRPLSTLSTGTRLIILVRRGGDVLIPKGDTVLLAGDTLVINDS” was -3.85.

For the sequence “HMAIRPDAAVSSHAVKQRLQSLIRAEDPAAPLSDEALRLALSALGIGVSRRAVAKYRAEMGIPSSSQRKK”, the “soluble fraction (log2)” value was -0.492. “HMAISQYGSQSDEVTKIQTRLKAWGYFDGPVTAYYGSQTTEAVKKFQQKHGLSATGVADAKTLELIGLP”: the “soluble fraction (log2)” value was -0.397.

In the case of “HMAITLEQFLSVNPHIRNNLYGNAVELVKDKDFSVLSDKLKASSKWANEPSLYKILSHYDEIIS”, the “soluble fraction (log2)” value is -0.335. Regarding “HMAKDSQSADVLQAIFDGSKVLNGLALDQDMRWDLINGLVMSGRLGVEAIEAEAAKLAKLVEELEFR”, the “soluble fraction (log2)” value was -0.976. With “HMAKETLRANIKDYIQKQIASGVYRPGDRIVETQLAREMNVSQAPVREAILELVSLGLLEERPYSGHMVRQ”, the “soluble fraction (log2)” value stood at 0.0046.

Turning to “HMAKIKVFELKNQINSLIKNKIESKDIIDFIETNFGVKKSHSSALEENEANFIKNYFVHADKA”, the “soluble fraction (log2)” value was -0.264.

As to “HMAKIPASTVVEIDGAPVVVAVRVNARARSYRLSIPHSGGPLLTLPPHGKWAEAEAFLLRHHNWLAARLHR”, the “soluble fraction (log2)” value is -2.92.

Regarding “HMAKQEPTDNGYDIYKVTASVLNVRNGAGTSYAVAYQLSKEDYVEVVSIDKGWAKLKDGKYVSADWITLYK”, the “soluble fraction (log2)” value is -2.53.

Turning to “HMAKRINVKLIMELSAGGLTQNEIASSRHFSKTSVNLVLKTARELNVSAADLREMSPEEAYRLFFPEK”, the “soluble fraction (log2)” value was -1.66. The value for “HMAKRKTEKTSVLEEIDGVGKARARALLARFGGLSGVKAASPEELRTVRGITPEIAENIRRYFQ” was -0.0813. “HMAKRMRNPNGYGSIVKLSGNRRNPYMVKVNTHMDERYYPVYDILGYYPTWADASIALAKYNDDPYNVS”: the “soluble fraction (log2)” value is -0.777. As for “HMAKRQATIVYEGTNVRSGPSTSSAIVKRTGKGESYPIVSTKGDWYEIKLSNGDSAYVASWVVQTVD”, the “soluble fraction (log2)” value is -0.728.

Turning to “HMAKRYFVTTGVRVRTKPDTANSEVLTVLDEGSEIDYKGDYNNEWVKINYNGQEAYIAKQYVRSEE”, the “soluble fraction (log2)” value was -0.382.
